According to US20210147523A1 (TEIJIN PHARMA, published 2021):

T1: human SPNS2 F133A mutant (human, UniProt Q8IVW8 1-549)
T1 sequence: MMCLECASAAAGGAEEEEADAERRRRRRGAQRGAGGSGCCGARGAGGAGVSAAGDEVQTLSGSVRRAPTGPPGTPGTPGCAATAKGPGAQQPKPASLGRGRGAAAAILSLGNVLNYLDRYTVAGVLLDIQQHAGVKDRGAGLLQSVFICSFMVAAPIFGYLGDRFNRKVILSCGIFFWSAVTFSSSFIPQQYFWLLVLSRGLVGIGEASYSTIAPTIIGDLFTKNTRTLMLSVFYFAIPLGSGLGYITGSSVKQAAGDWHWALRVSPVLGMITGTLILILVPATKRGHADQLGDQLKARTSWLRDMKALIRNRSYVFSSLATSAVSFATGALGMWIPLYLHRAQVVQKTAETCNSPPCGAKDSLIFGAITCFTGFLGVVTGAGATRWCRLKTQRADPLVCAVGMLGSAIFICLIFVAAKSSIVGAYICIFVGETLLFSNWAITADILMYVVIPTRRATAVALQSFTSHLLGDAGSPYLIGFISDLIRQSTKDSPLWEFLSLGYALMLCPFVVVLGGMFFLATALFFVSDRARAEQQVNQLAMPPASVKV

T2: human SPNS2 Q130A mutant (human, UniProt Q8IVW8 1-549)
T2 sequence: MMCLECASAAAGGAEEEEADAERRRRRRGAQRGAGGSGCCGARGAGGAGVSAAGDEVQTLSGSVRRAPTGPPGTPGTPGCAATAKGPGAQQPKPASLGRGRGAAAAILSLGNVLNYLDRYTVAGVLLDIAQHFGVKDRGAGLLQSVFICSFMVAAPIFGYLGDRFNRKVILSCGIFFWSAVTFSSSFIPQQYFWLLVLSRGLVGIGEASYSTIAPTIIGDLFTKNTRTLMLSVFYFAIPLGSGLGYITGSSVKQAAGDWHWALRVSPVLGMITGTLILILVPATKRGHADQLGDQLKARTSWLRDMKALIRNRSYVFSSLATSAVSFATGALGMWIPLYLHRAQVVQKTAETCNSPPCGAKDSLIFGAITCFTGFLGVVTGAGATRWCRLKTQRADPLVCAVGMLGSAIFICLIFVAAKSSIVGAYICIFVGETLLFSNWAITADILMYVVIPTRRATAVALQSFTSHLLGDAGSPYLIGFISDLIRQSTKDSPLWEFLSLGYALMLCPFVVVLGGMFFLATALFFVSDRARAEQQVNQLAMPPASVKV

T3: human SPNS2 K136A mutant (human, UniProt Q8IVW8 1-549)
T3 sequence: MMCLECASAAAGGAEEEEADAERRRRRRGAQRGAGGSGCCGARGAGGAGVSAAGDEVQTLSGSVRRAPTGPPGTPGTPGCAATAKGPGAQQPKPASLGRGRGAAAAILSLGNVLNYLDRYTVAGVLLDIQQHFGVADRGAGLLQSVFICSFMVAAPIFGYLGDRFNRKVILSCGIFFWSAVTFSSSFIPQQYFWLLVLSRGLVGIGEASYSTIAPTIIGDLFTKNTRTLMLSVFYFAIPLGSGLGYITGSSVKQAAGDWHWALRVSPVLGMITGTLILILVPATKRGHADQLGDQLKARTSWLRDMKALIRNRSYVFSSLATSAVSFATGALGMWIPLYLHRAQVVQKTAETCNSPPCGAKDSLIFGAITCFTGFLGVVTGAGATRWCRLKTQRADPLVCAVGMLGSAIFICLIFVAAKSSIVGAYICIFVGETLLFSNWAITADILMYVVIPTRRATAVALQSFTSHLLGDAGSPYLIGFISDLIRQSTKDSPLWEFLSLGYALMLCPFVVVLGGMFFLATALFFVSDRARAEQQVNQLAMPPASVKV

T4: human SPNS2 R200A mutant (human, UniProt Q8IVW8 1-549)
T4 sequence: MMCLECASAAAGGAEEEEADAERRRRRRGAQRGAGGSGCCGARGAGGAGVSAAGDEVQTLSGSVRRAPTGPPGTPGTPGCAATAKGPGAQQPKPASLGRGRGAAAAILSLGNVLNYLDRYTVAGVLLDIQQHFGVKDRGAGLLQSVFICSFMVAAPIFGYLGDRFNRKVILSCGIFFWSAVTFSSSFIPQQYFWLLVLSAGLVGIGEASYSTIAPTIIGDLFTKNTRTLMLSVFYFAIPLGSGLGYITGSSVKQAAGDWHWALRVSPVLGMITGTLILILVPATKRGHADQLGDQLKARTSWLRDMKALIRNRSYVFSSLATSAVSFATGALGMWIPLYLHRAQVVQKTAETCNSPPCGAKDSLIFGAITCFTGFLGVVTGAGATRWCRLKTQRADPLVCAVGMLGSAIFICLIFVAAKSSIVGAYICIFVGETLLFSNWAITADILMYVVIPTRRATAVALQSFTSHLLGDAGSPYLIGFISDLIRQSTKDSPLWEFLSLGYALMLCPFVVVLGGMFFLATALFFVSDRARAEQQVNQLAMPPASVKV

T5: human SPNS2 D128A mutant (human, UniProt Q8IVW8 1-549)
T5 sequence: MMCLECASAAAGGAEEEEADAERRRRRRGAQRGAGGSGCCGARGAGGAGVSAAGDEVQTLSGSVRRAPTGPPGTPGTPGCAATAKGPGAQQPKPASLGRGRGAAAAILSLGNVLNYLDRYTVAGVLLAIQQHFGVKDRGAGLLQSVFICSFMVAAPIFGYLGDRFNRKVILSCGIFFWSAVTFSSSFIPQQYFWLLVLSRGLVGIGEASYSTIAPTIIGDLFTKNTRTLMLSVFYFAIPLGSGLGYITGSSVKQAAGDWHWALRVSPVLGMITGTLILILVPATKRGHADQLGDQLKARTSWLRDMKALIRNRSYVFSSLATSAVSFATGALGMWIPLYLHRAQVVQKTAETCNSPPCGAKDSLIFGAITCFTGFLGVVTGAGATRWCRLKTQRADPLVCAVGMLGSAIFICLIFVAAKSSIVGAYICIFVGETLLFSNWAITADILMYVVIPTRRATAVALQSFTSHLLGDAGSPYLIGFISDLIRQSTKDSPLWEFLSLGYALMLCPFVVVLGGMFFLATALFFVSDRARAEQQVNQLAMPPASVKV


What was measured:
Assay in all cases: flow cytometry
human SPNS2 F133A mutant = molecular target: T1, human SPNS2 F133A mutant
human SPNS2 Q130A mutant = molecular target: T2, human SPNS2 Q130A mutant
human SPNS2 K136A mutant = molecular target: T3, human SPNS2 K136A mutant
human SPNS2 R200A mutant = molecular target: T4, human SPNS2 R200A mutant
human SPNS2 D128A mutant = molecular target: T5, human SPNS2 D128A mutant

Binder	binding ratio vs native type (human SPNS2 F133A mutant) [ratio]	binding ratio vs native type (human SPNS2 Q130A mutant) [ratio]	binding ratio vs native type (human SPNS2 K136A mutant) [ratio]	binding ratio vs native type (human SPNS2 R200A mutant) [ratio]	binding ratio vs native type (human SPNS2 D128A mutant) [ratio]
50-0704C (antibody, IgG2b, V domains shown) VH: EVQLVGSGGGLVQPGRSMKLSCEASGFTFSNHYMAWVRQAPTKGLEWVATISTGGGNTYYRDSVKGRFTISRDNARSTLSLQMDSLRSEDTATYYCARQDYSNYMGGFAYWGQGTLVTVSS VL: QFVLTQPNSVSTNLGSTVKLSCTRSIGNIGNNYVNWYKQYEGRSPTTMIYRDDERPDGVPDRFSGSIDRSSNSALLTINSVQTEDEADYFCQSFSSGIFIFGGGTKLTVL	< 0.5	< 0.5	< 0.5		
49-0703G (antibody, IgG2b, V domains shown) VH: EVQLVESGGGLVQPGRSMKLSCAASGFTFSNHYMAWVRQAPTKGLEWVASISTGGGNTYYRDSVKGRFTISRDNAKSTLYLQMDSLRSEDTATYYCARQDYSNYMGGFAYWGQGTLVTVSS VL: QFVLTQPNSVSTNLGSTVKLSCKRSTGNIGNNYVNWYQQYEGRSPTTMIYRDDERPDGVPDRFSGSIDRSSNSALLTINNVQTEDEADYFCQSFSNGMFIFAGGTQLTVL	< 0.5	< 0.5	< 0.5	< 0.5	
18-0211B (antibody, IgG2b, V domains shown) VH: AVQLVGSGGGLVQPGRSMKLSCEASGFTFSNHYMAWVRQAPTRGLEWVATISTGGGNTYYRDSVKGRFTISRDNTRSTLSLQMDSLRSEDTATYYCTRQDYTNYMGGFAYWGQGTLVTVSS VL: QFVLTQPNSVSTNLGSTVKLSCTRSIGNIGNNYVNWYKQYEGRSPTTLIYRDDERPDGVPDRFSGSIDRSSNSALLTINSVQTEDGADYFCQSFSSGIFIFGGGTTLTVL		< 0.5	< 0.5		
89-1207D (antibody, IgG2b, V domains shown) VH: EVQLVGSGGGLVQPGRSMKLSCEASGFTFSNHYMAWVRQAPTKGLEWVATISTGGGNTYYRDSVKGRFTISRDNARSILSLQMDSLRSEDTATYYCARQDYSNYMGGFAYWGQGTLVTVSS VL: QFVLTQPNSVSTNLGSTVKLSCTRSIGNIGNNYVNWYKQYEGRSPTTMIYRDDERPDGVPDRFSGSIDRSSNSALLTINNVQTEDEADYFCQSFSSGMFIFGGGTKLTVL			< 0.5		
64-0807A (antibody, IgG2b, V domains shown) VH: EVQVVESGGGLVQPGRSMKLSCAALGFTFRDYYMAWVRQTPTKGLEWVAAISTGGGNTYYRDSVKGRFTISRDNAKSTLYLQMDSLRSDDTATYYCARNPYGNYFDYWGQGVMVTVSS VL: QFVLSQPNSVSTNLGSTVKLSCKRSTGNIGSNYVHWYQRHEGRSPTTLIYRDDKRPNGVPDRFSGSIDRSSNSALLTINNVQTEDEADYFCQSYSGGMYLFGGGTKLTVL			< 0.5		
65-0810G (antibody, IgG2b, V domains shown) VH: EVHLVESGGGLVQPGRSMKLSCTASGFTFNNYYMAWVRQAPTKGLEWVASISTGGGYTYYRDSVKGRFTISRDNTGNTLYLQMDSLRSEDTATYYCARCWELPYWGQGVMVTVSS VL: QFVLTQPNSVSTNLGSTVKLSCRRSSGNIGNNYVNWYRQHEGRSPTTMIYRDDTRPDGVPNRFSGSIDRSSNSALLTINNVRPEDEAYYFCQSYSGSIYIFGGGTKLTVL	< 0.5		< 0.5	< 0.5	
80-1104A (antibody, IgG2b, V domains shown) VH: EVQLVETGGGLVQPGSSLKLSCSTSGFTFSETWMSWVRQAPGKGLEWVGLIKDKNSNYEANYAESVKGRFTISRDDSKRRVYLQMYTLRDQDTATYYCTSHEDFYYYSSYYFDYWGQGVMVTVSS VL: DIVLTQSPATLSVTPGESVSLSCRASQGISTSIHWYQQKSNESPRLLIKYASQSMSGIPSRFSGSGSGTDFTLRINRVESEDFSVYYCQQSYNLPLTFGSGTKLEIKR			< 0.5		
96-1403F (antibody, IgG2b, V domains shown) VH: EVQLVETGGGLVRPGSSLKLSCATSGFTFSDTWMSWVRQAPGKGLEWVALIKDKNSNSEANYAESIKGRFTISRDDSKSRVYLQMNTLRDQDTATYYCTRHEDFYYYSGYYFDYWGQGVMVTVSS VL: DIVLTQSPPTLSVTPGESVSLSCRASQGISTSIHWYQQRSNESPRLLIKYASQSIAGIPSRFSGSGSGTDFILSINRVESEDFSVYYCQQTYSLPLTFGPGTKLEVKR	< 0.5		< 0.5		
93-1310F (antibody, IgG2b, V domains shown) VH: EVQLVETGGGLVQPGSSLKLSCATSGFTFSDTWMSWVRQAPGKGLEWVALIKDKNSNYEANYAESVKGRFTISRDDSKRRVYLQMFTLRDQDTATYYCTSHEDFYYYSSYYFDYWGHGVMVTVSS VL: DIVLTQSPATLSVTPGESVSLSCRASQGISTSIHWYQQKSNGSPRLLIKYASQSISGIPSRFSGSGSGTDFTLRINRVESEDFSVYYCQQTYSLPLTFGSGTRLEIKR	< 0.5		< 0.5		
33-0503E (antibody, IgG2b, V domains shown) VH: EVQLVESGGGLVRPGGSMKLSCGASGFIFDNYYMTWVRQAPTKGLEWVASISSSGGNTYYRDSVRGRFTISRDNAGNTLSLQMGSLRAEDTATYHCAKEGYRGRYFDYWGQGVMVTVSS VL: QVVLTQPNSVSTNLGSTVKLSCKRTTGNIGSNYVNWYQQHEGRSPTTMIYRDDERPDGVPDRFSGSIDRSSNSALLTINNVQTEDEAEYFCQSYSSGIIFGGGTKLTVL			< 0.5	< 0.5	
37-0511F (antibody, IgG2b, V domains shown) VH: EVHLQQSGAALVRPRASVKLSCKVSGDSISRYYVHFVKQRPGQGLEWIGRIDPEDDTTKYSEKFKNRATLTADASSDTASLILSGLTSDDTATYFCSTLTGLDYWGQGVMVTVSS VL: DIQMTQSPPVLSTSVGDRVTLRCKPSQNVHSKLDWYQQKHGEAPKLLIYYTHNLQTGIPSRFSGSGSGTDYTLTISSLQPEDVATYYCFQYYSGWTFGGGTKLEMKR					< 0.5
